Changes are numbered by the printed parent chain.
B1: SAD10320_P01_D01 (ADI-48644) (antibody, V domains shown)
VH: QVQLVQSGAEVKKPGASVKVSCKASGFNIKDYYMHWVRQAPGQRLEWMGWIDLENANTIYDAKFQGRVTITRDTSASTAYMELSSLRSEDTAVYYCARDAYGHGFYDVWGQGTLVTVSS
VL: DIVMTQSPDSLAVSLGERATINCKSSQSLLNARTGKNYLAWYQQKPGQPPKLLIYWASTRESGVPDRFSGSGSGTDFTLTISSLQAEDVAVYYCKQSYSHRTFGGGTKVEIK
notes: IgG; also called Ab48
B2: SAD10319_P01_F03 (ADI-48627) (antibody, V domains shown)
VH: QVQLVQSGAEVKKPGASVKVSCKASGYTFESYDMHWVRQAPGQRLEWMGWINAGTGATVYSQKFQGRVTITRDTSASTAYMELSSLRSEDTAVYYCARDAYHHYFYDVWGQGTLVTVSS
VL: B1 VL with H100R
notes: IgG; also called Ab246
B3: SAD10319_P01_H02 (ADI-48625) (antibody, V domains shown)
VH: B2 VH with E30T, S31D, D33A, A53P, G54S
VL: B1 VL with H100R
notes: IgG; also called Ab242
B4: SAD10319_P02_E05 (ADI-48630) (antibody, V domains shown)
VH: B2 VH with E30D, D33I, N52D, H102G, V108H
VL: B1 VL with H100R
notes: IgG; also called Ab4
B5: SAD10318_P03_E09 (ADI-48611) (antibody, V domains shown)
VH: QVQLVQSGAEVKKPGASVKVSCKASGFNIKDYYMHWVRQAPGQRLEWMGWIDLENANTIYDAKFQGRVTITRDTSASTAYMELSSLRSEDTAVYYCARDAYGHYHYDVWGQGTLVTVS
VL: B1 VL with K36H, Y38H, S99H
notes: IgG; also called Ab207
B6: SAD10319_P02_A05 (ADI-48629) (antibody, V domains shown)
VH: B2 VH with E30D, D33A, A53P, G54N, V59T, A100H, H102G
VL: B1 VL with H100R
notes: IgG; also called Ab255
B7: SAD10319_P01_F02 (ADI-48624) (antibody, V domains shown)
VH: B2 VH with N52D, A57N, V59K, R72A, T74E, A76T, A100H, H102G
VL: B1 VL with H100R
notes: IgG; also called Ab241
B8: SAD10319_P01_A01 (ADI-48619) (antibody, V domains shown)
VH: B2 VH with E30A, D33A, A53P, G54D, A57N
VL: B1 VL with H100R
notes: IgG; also called Ab229
B9: SAD10319_P02_D06 (ADI-48631) (antibody, V domains shown)
VH: B2 VH with E30T, S31D, D33A, V59I
VL: B1 VL with H100R
notes: IgG; also called Ab11
B10: SAD10319_P01_C01 (ADI-48621) (antibody, V domains shown)
VH: B2 VH with E30T, S31D, N52D, A57L, V59K, A100H, H102G
VL: B1 VL with H100R
notes: IgG; also called Ab230
B11: SAD10319_P01_C03 (ADI-48626) (antibody, V domains shown)
VH: B2 VH with E30T, S31D, N52D, A53P, G54Y, V59K, H102G
VL: B1 VL with H100R
notes: IgG; also called Ab244
B12: SAD10319_P01_H01 (ADI-48623) (antibody, V domains shown)
VH: B2 VH with E30D, S31D, D33A, N52D, A57D, V59K, A100H, H103R
VL: B1 VL with H100R
notes: IgG; also called Ab235
B13: SAD10318_P02_C05 (ADI-48597) (antibody, V domains shown)
VH: B1 VH with Y101H, G102H, H103R, G104Y
VL: DIVMTQSPDSLAVSLGERATINCKSSQSLLNARTGHNHLAWYQQKPGQPPKLLIYWASTRESGVPDRFSGSGSGTDFTLTISSLQAEDVAVYYCKQSHSHRTFGGGTKVEI
notes: IgG; also called Ab180
B14: SAD10320_P01_E01 (ADI-48645) (antibody, V domains shown)
VH: B1 VH with G104V
VL: B1 VL with S99K
notes: IgG; also called Ab49
B15: SAD10320_P02_H05 (ADI-48652) (antibody, V domains shown)
VH: B1 VH with Y101H, G102H, H103R, G104Y
VL: B1 VL with Y98H, H100R
notes: IgG; also called Ab81
B16: SAD10320_P04_G10 (ADI-48658) (antibody, V domains shown)
VH: B1 VH with G104D
VL: B1 VL with H100R
notes: IgG; also called Ab108
B17: SAD10320_P02_F05 (ADI-48651) (antibody, V domains shown)
VH: B1 VH with H103R, G104Y, F105H
VL: B1 VL with S99R
notes: IgG; also called Ab79
B18: SAD10320_P02_D05 (ADI-48650) (antibody, V domains shown)
VH: B1 VH with Y101T, G102H, H103R, G104Y
VL: B13 VL with H36K, H38Y, S99T, H100R
notes: IgG; also called Ab77
B19: SAD10320_P03_F09 (ADI-48656) (antibody, V domains shown)
VH: B1 VH with G104D
VL: B1 VL with S99H, H100R
notes: IgG; also called Ab101
B20: SAD10320_P01_F03 (ADI-48647) (antibody, V domains shown)
VH: B1 VH with G102P, G104Y
VL: B1 VL with S99L
notes: IgG; also called Ab65
B21: SAD10320_P04_E10 (ADI-48657) (antibody, V domains shown)
VH: B1 VH with L45P, G104D
VL: B1 VL with H100R
notes: IgG; also called Ab106
B22: SAD10320_P04_H11 (ADI-48662) (antibody, V domains shown)
VH: B1 VH with G104V
VL: B1 VL with S99Q
notes: IgG; also called Ab116
B23: SAD10320_P02_E04 (ADI-48649) (antibody, V domains shown)
VH: B1 VH with G102H, H103E, G104Y
VL: B1 VL with Y98H, S99V, H100R
notes: IgG; also called Ab72
B24: SAD10320_P02_C06 (ADI-48654) (antibody, V domains shown)
VH: B1 VH with H103R, G104Y
VL: B1 VL with Y98G, S99H, H100R
notes: IgG; also called Ab84
B25: SAD10320_P03_D09 (ADI-48655) (antibody, V domains shown)
VH: B1 VH with G104D
VL: B1 VL with Y98W, S99H, H100R
notes: IgG; also called Ab100
B26: SAD10320_P02_C04 (ADI-48648) (antibody, V domains shown)
VH: B1 VH with H103R, G104Y
VL: B1 VL with Y98H, S99T, H100R
notes: IgG; also called Ab71
B27: SAD10320_P02_B06 (ADI-48653) (antibody, V domains shown)
VH: B1 VH with G104W
VL: B1 VL with S99H
notes: IgG; also called Ab83

biological target: T1, human CD3 on CD3+ Jurkat cells (human, UniProt P07766 23-207); assay: flow cytometry, 100 nM IgG on CD3+ Jurkat cells, pH 6.0
T1 construct: whole, on cells; Native CD3 complex on cells; the other CD3 chains are not specified for this assay; also called Human CD3+ Jurkat
Protocol: (§1) Specificity of the anti-CD3 antibodies for human CD3+ Jurkat cells compared to CHO-S cells at pH 6.0 and 7.4 was determined using a FACS cell binding assay. Briefly, CD3+ human Jurkat cells and CHO-S cells were thawed and washed with cold PBSF buffer, pH 7.4 (PBS+0.1% BSA, pH 7.4). About 200,000 cells were aliquoted per well of a 96-well plate and pelleted by centrifugation (5 minutes at 500×g). The cells were washed with either PBSF pH 7.4 or PBSF pH 6.0 (PBS+0.1% BSA, pH 6.0), and then resuspended in 100 ul in either PBSF pH 7.4 or PBSF pH 6.0 with IgG antibody produced in yeast (100 nM). The mixture (cells+antibody) was incubated for 20 minutes on ice, then washed twice with either PBSF pH 7.4 or PBSF pH 6.0. Cells were resuspended in 50 ul of propidium iodide (1:500 dilution) and anti-human IgG-RPE (1:100 dilution) prepared in either PBSF pH 7.4 or PBSF pH 6.0, then incubated for 20 minutes on ice in the dark before cells were washed twice with either PBSF pH 7.4 or PBSF pH 6.0. Binding was analyzed on FACS Canto II.
(§2) Cell binding assays. CD3+ human Jurkat cells (ATCC) and CHO-S cells (Invitrogen/ThermoFisher) were thawed and washed with cold PBSF buffer, pH 7.4 (PBS+0.1% BSA, pH 7.4). About 200,000 cells were aliquoted per well of a 96-well plate (FACS Assay Plate VWR BD 353263) and pelleted by centrifugation (5 minutes at 500×g). The cells were washed with either PBSF pH 7.4 or PBSF pH 6.0 (PBS+0.1% BSA, pH 6.0), and then resuspended in 100 ul in either PBSF pH 7.4 or PBSF pH 6.0 with IgG antibody (100 nM) produced in yeast as described above. The mixture (cells+antibody) was incubated for 20 minutes on ice, then washed twice with either PBSF pH 7.4 or PBSF pH 6.0. Cells were resuspended in 50 ul of propidium iodide (Roche; 1:500 dilution) and anti-human IgG-RPE (Southern Biotech; 1:100 dilution) prepared in either PBSF pH 7.4 or PBSF pH 6.0, then incubated for 20 minutes on ice in the dark before cells were washed twice with either PBSF pH 7.4 or PBSF pH 6.0. Binding was analyzed on FACS Canto II.

T1 sequence (P07766 23-207): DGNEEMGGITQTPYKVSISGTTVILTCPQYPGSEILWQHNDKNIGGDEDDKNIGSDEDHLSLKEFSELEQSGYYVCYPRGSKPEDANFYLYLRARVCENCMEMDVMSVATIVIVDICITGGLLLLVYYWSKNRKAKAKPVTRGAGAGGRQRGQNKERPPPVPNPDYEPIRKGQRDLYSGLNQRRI

| MFI pH 6.0 | Binder |
| --- | --- |
| 860 MFI | B1 |
| 335 MFI | B2 |
| 1730 MFI | B3 |
| 5540 MFI | B4 |
| 123 MFI | B5 |
| 1780 MFI | B6 |
| 895 MFI | B7 |
| 1750 MFI | B8 |
| 3100 MFI | B9 |
| 731 MFI | B10 |
| 3160 MFI | B11 |
| 1760 MFI | B12 |
| 1320 MFI | B13 |
| 450 MFI | B14 |
| 5750 MFI | B15 |
| 113 MFI | B16 |
| 5620 MFI | B17 |
| 6010 MFI | B18 |
| 185 MFI | B19 |
| 4340 MFI | B20 |
| 786 MFI | B21 |
| 81 MFI | B22 |
| 2320 MFI | B23 |
| 5590 MFI | B24 |
| 1180 MFI | B25 |
| 6160 MFI | B26 |
| 3110 MFI | B27 |

biological target: T1, human CD3 on CD3+ Jurkat cells; assay: flow cytometry, 100 nM IgG on CD3+ Jurkat cells, pH 7.4
Protocol: as §1, §2

| MFI pH 7.4 | Binder |
| --- | --- |
| 124 MFI | B1 |
| 45 MFI | B2 |
| 128 MFI | B3 |
| 5060 MFI | B4 |
| 47 MFI | B5 |
| 499 MFI | B6 |
| 58 MFI | B7 |
| 129 MFI | B8 |
| 232 MFI | B9 |
| 49 MFI | B10 |
| 369 MFI | B11 |
| 147 MFI | B12 |
| 61 MFI | B13 |
| 41 MFI | B14 |
| 4760 MFI | B15 |
| 316 MFI | B16 |
| 4110 MFI | B17 |
| 5430 MFI | B18 |
| 38 MFI | B19 |
| 141 MFI | B20 |
| 67 MFI | B21 |
| 44 MFI | B22 |
| 639 MFI | B23 |
| 4890 MFI | B24 |
| 581 MFI | B25 |
| 5140 MFI | B26 |
| 1030 MFI | B27 |

biological target: T1, human CD3 on CD3+ Jurkat cells; assay: flow cytometry on CD3+ Jurkat cells, ratio of MFI at pH 6.0 to pH 7.4
Protocol: as §1, §2

| MFI pH 6.0/MFI pH 7.4 | Binder |
| --- | --- |
| 6.9 | B1 |
| 7.4 | B2 |
| 13.6 | B3 |
| 1.1 | B4 |
| 2.6 | B5 |
| 3.6 | B6 |
| 15.4 | B7 |
| 13.5 | B8 |
| 13.4 | B9 |
| 14.8 | B10 |
| 8.6 | B11 |
| 12 | B12 |
| 21.7 | B13 |
| 11.1 | B14 |
| 1.2 | B15 |
| 0.4 | B16 |
| 1.4 | B17 |
| 1.1 | B18 |
| 4.9 | B19 |
| 30.9 | B20 |
| 11.7 | B21 |
| 1.8 | B22 |
| 3.6 | B23 |
| 1.1 | B24 |
| 2 | B25 |
| 1.2 | B26 |
| 3 | B27 |

From US20220380463A1 (Adimab, published 2022)
